From publication PMC9865355

Columns and labels:
Assay in all cases: split reporter (BiFC, NanoBiT)
[1] = biological target: GLRaV-3 silencing suppressor p20B, BiFC fusion (grapevine leafroll-associated virus 3 (isolate GP18))
[2] = biological target: GLRaV-3 heat shock protein 70 homolog (HSP70h), BiFC fusion (grapevine leafroll-associated virus 3 (isolate GP18))
[3] = biological target: GLRaV-3 coat protein (CP), BiFC fusion (grapevine leafroll-associated virus 3 (isolate GP18))
[4] = biological target: GLRaV-3 transmembrane movement protein p5, BiFC fusion (grapevine leafroll-associated virus 3 (isolate GP18))

| Substance | average MI diff [1] | average MI diff [2] | average MI diff [3] | average MI diff [4] |
| --- | --- | --- | --- | --- |
| GLRaV-3 minor coat protein (CPm), BiFC fusion (natural protein) | 27.2 |  |  |  |
| GLRaV-3 silencing suppressor p20B, BiFC fusion (natural protein) | 92.7 |  |  |  |
| GLRaV-3 heat shock protein 70 homolog (HSP70h), BiFC fusion (natural protein) | 45.5 | 51.8 | 34.6 |  |
| GLRaV-3 transmembrane movement protein p5, BiFC fusion (natural protein) |  |  |  | 114 |
| GLRaV-3 coat protein (CP), BiFC fusion (natural protein) | 55.7 |  | 27 |  |
